This is an account of results in the supplement of paper PMC10567573.

The nature of the series: protein stability index of a GFP-peptide fusion (GPS, HEK-293T) (PSI 1-6); higher = more stable.
[1] abbreviates: treatment: DMSO, c terminus: a fixed tail appended.
[2] abbreviates: treatment: MLN4924 1 uM, 8 h, c terminus: a fixed tail appended.

± gives the standard deviation.
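Also: 24-mer peptide tiles fused after GFP, lentivirally expressed, FACS-sorted into six equal bins by GFP/DsRed ratio, decoded by Illumina sequencing, PSI is the read-weighted mean bin number.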

Consider GRKDITSILRAPAYPLELQGQPDP [MOSPD3], for which the protein stability index reads like this: under setting [1], 4.26 ± 0.15; under setting [2], 4.28 ± 0.35.

As for GRQERGLPPSMERGYPPPRDSYSS [RBMX], the protein stability index was found to be 4.77 ± 0.088 under setting [1] and 4.71 ± 0.19 under setting [2].

Regarding GRRAALYVHWPYCEKRCSYCNFNK [RSAD1], the protein stability index runs as follows: under setting [1], 2.23 ± 0.45; under setting [2], 2.96 ± 0.55.

As to GRVLRKLPFLAHALYVQAPTVTIE [TRIP13], the protein stability index is 2.32 ± 0.54 under setting [1] and 2.05 ± 0.45 under setting [2].

Sequence GSFHGPGHISLRRENSSDSPKELK [DLC1] showed a protein stability index under setting [1] of 4.99 ± 0.39 and a protein stability index under setting [2] of 5.09 ± 0.41.

For GSGTIDFEEFLVMMVRQMKEDAKG [TNNC2], the protein stability index by setting is: under setting [1], 3.25 ± 0.88; under setting [2], 3.88 ± 0.8.

In the case of GSMVEIAKQLQAVKRKIRDESLCP [TRIM39], the protein stability index was determined as 3.09 ± 0.24 under setting [1] and 3.15 ± 0.24 under setting [2].

Regarding GSSDASGSYSSTMNGHQNGLDSPP [ESRRG], the protein stability index came to 4.93 ± 0.13 under setting [1] and 4.99 ± 0.27 under setting [2].

For the sequence GTPSLLRGKRGGHATNYRIVAPRS [EMID1], the protein stability index by setting is: under setting [1], 4.1 ± 0.12; under setting [2], 3.88 ± 0.32.

As for GVHVRRTDKVGTEAAFHPIEEYMV [FUT8], the protein stability index came to 3.36 ± 0.29 under setting [1] and 3.58 ± 0.27 under setting [2].

For the sequence GVPGQPLNFKAEPESETSILLSWT [PTPRD], the protein stability index reads like this: under setting [1], 2.83 ± 0.27; under setting [2], 2.98 ± 0.49.

On to GWKSMIQSHPHLVAEAFRALASAQ [SPOPL], for which the protein stability index runs as follows: under setting [1], 2.4 ± 0.44; under setting [2], 2.3 ± 0.17.

HCIQQILESVNHCHLNGIVHRDLK [CAMK2D]: the protein stability index reads like this: under setting [1], 2.26 ± 0.047; under setting [2], 2.36 ± 0.5.

HDKIRPISSIGQVQSYMEHYCNSS [SPACA9]: the protein stability index is, setting by setting: under setting [1], 3.6 ± 0.4; under setting [2], 3.72 ± 0.18.

On to HEKIGFPAARRCHSCVQIKNDVFI [KLHDC10], for which the protein stability index stood at 1.89 ± 0.31 under setting [1] and 1.73 ± 0.27 under setting [2].

Take HFAAASTHGALCLELLVNNGADVN [ANKRD44]: the protein stability index under setting [1] came out at 2.73 ± 0.23 and the protein stability index under setting [2] was found to be 2.62 ± 0.38.

With HFLSKMPEAEENKQIIRKHAQTFV [CCND1], the protein stability index turned out to be 3.39 ± 0.21 under setting [1] and 3.43 ± 0.29 under setting [2].

On to HGISIPEPEDMETLEEKFSDVHPV [CDKL4], for which the protein stability index under setting [1] is 5.29 ± 0.2 and the protein stability index under setting [2] is 4.98 ± 0.28.

Take HHSLQAHFRPRFHPLPTVIIVNLL [TMEM192]: the protein stability index was found to be 2.68 ± 0.28 under setting [1] and 2.35 ± 0.48 under setting [2].

Take HITKTVKGGISETRIEKRIVITGD [EPB41L3]: the protein stability index was 3.85 ± 0.28 under setting [1] and 3.96 ± 0.12 under setting [2].

For the sequence HIWELSSIKNSLKVAAISESPVAE [PTGFR], the protein stability index was 3.11 ± 0.28 under setting [1] and 3.21 ± 0.39 under setting [2].

The sequence HKADSIQGTARTLSPVLESPRDLQ [TNXB] displayed a protein stability index under setting [1] of 4.75 ± 0.18 and a protein stability index under setting [2] of 4.9 ± 0.14.

On to HLRNKTEDLEATSEHFKTTSQKVA [VAMP8], for which the protein stability index was 5.01 ± 0.24 under setting [1] and 5.07 ± 0.14 under setting [2].

The sequence HLVAGGGAGAVSRTCTAPLDRLKV [SLC25A25] displayed a protein stability index under setting [1] of 3.11 ± 0.35 and a protein stability index under setting [2] of 3.25 ± 0.22.

With HMEEEVEDFLLKKPIVPTDGKRVI [CDC25A], the protein stability index runs as follows: under setting [1], 4.68 ± 0.096; under setting [2], 4.84 ± 0.24.

HPPPSTPIKLEEGDGCAREYLLP [ADD1]: the protein stability index (treatment: DMSO, c terminus: native) came to 5.13 ± 0.2 and the protein stability index (treatment: MLN4924 1 uM, 8 h, c terminus: native) turned out to be 4.81 ± 0.09.

On to HQRTHTGEKPFTCHECGKKFSQNS [ZNF75A], for which the protein stability index was 3.14 ± 0.27 under setting [1] and 3.47 ± 0.33 under setting [2].

Turning to HRLGSPYGHCTAGGEGVEVELLHN [SCNN1D], the protein stability index came to 3.9 ± 0.34 under setting [1] and 3.82 ± 0.37 under setting [2].

On to HRNQCQYCRLKKCLKVGMRREAVQ [NR2F2], for which the protein stability index reads like this: under setting [1], 2.39 ± 0.47; under setting [2], 2.57 ± 0.57.

Sequence HRRRNQLIKKKKEELEAKRLQCPF [FAM107A] registered a protein stability index under setting [1] of 3.95 ± 0.38 and a protein stability index under setting [2] of 4.22 ± 0.16.

As for HRRTVKMRKGNTMQQFLQKALEIL [FAM50A], the protein stability index is, setting by setting: under setting [1], 3.08 ± 0.36; under setting [2], 2.77 ± 0.42.

With HRYIAYMANQEAAIQAFLDKCSAP [IQUB], the protein stability index turned out to be 2.51 ± 0.2 under setting [1] and 2.38 ± 0.46 under setting [2].

As to HSSWTPPNAQYWSQFHSVRPQGPQ [DNAJC4], the protein stability index under setting [1] stood at 3.23 ± 0.053 and the protein stability index under setting [2] came out at 3.34 ± 0.22.

With HTLRASMRELGLLIFFLFIGVILF [KCNA4], the protein stability index by setting is: under setting [1], 2.86 ± 0.53; under setting [2], 2.61 ± 0.49.

For HTPTPFKNALEKYGPLKPLPQTPH [MYBL2], the protein stability index runs as follows: under setting [1], 3.56 ± 0.28; under setting [2], 3.91 ± 0.35.

Consider HVKMMLSGVCLFAVFIALLPILGH [PTGFR], for which the protein stability index runs as follows: under setting [1], 2.97 ± 0.83; under setting [2], 2.79 ± 0.78.

On to HVTCVDQSEHTMVLRCQLSAEEVR [C2CD2L], for which the protein stability index is, setting by setting: under setting [1], 3.73 ± 0.19; under setting [2], 3.82 ± 0.18.

Consider HYPFLGAMGDHSKKKPGTAMCVGC [ISL2], for which the protein stability index came out at 2.86 ± 0.34 under setting [1] and 3.25 ± 0.43 under setting [2].

Regarding HYSLLTSQPLDREATSHYIIELLA [PCDHGC5], the protein stability index runs as follows: under setting [1], 2.36 ± 0.13; under setting [2], 2.63 ± 0.32.

As to IAERLGCTLPQLAIAWCLRNEGVS [KCNAB2], the protein stability index reads like this: under setting [1], 2.88 ± 0.44; under setting [2], 2.71 ± 0.66.

In the case of IAIPEWFLSENATVAAETRAVIAW [CPXM2], the protein stability index runs as follows: under setting [1], 2.24 ± 0.25; under setting [2], 2.08 ± 0.14.

On to IAVLGIVMLKRIHSLYRRTGASFQ [SCAMP3], for which the protein stability index was determined as 2.34 ± 0.53 under setting [1] and 2.25 ± 0.18 under setting [2].

Take IAWIKDKLLHIYYQNSIDDRLLVE [PDS5B]: the protein stability index worked out at 2.82 ± 0.36 under setting [1] and 2.43 ± 0.44 under setting [2].

On to IEGLKEELAYLRKNHEEEMLALRG [KRT16], for which the protein stability index was determined as 3.79 ± 0.35 under setting [1] and 3.77 ± 0.32 under setting [2].

For IEITFSYWDGSGHRRTVKMRKGNT [FAM50A], the protein stability index by setting is: under setting [1], 2.27 ± 0.25; under setting [2], 2.19 ± 0.18.

With IGTQGPLENTYRDFWLMVWEQKVL [PTPN9], the protein stability index under setting [1] was 2.31 ± 0.24 and the protein stability index under setting [2] stood at 1.79 ± 0.29.

IHAELSKLVKKHAAQRSTETALYR [FKBP8] gave a protein stability index under setting [1] of 2.94 ± 0.31 and a protein stability index under setting [2] of 2.69 ± 0.44.

Regarding IHHLVLTASDGGDPLRSGTVLVSV [PCDHGA10], the protein stability index under setting [1] was determined as 2.97 ± 0.45 and the protein stability index under setting [2] turned out to be 2.79 ± 0.34.

Take IIHETAVGMNFLHCMAPPLLHLDL [RIPK4]: the protein stability index is 2.6 ± 0.64 under setting [1] and 2.57 ± 0.85 under setting [2].

For IIIYLGPMVLMIIVMCVQIKCFHE [CDS2], the protein stability index by setting is: under setting [1], 3.13 ± 0.53; under setting [2], 3.19 ± 0.24.

Consider IKCETSPPSSPRTLRLEKLGHPAL [PPFIA4], for which the protein stability index reads like this: under setting [1], 3.48 ± 0.35; under setting [2], 3.56 ± 0.22.

As for IKEIDEHAPGVPKILVGNRLHLAF [RAB40B], the protein stability index stood at 1.93 ± 0.33 under setting [1] and 2.19 ± 0.36 under setting [2].
